In patent publication US20210388081A1 (Memorial Sloan Kettering, published 2021):

Key:
[1] = biological target: T1, FcRL1, overexpressed on 3T3 cells (UniProt Q96LA6 17-429, limits assumed); assay: phage clone on 3T3-FcRL1 cells
T1 construct: whole, on cells
T1 sequence (looked up): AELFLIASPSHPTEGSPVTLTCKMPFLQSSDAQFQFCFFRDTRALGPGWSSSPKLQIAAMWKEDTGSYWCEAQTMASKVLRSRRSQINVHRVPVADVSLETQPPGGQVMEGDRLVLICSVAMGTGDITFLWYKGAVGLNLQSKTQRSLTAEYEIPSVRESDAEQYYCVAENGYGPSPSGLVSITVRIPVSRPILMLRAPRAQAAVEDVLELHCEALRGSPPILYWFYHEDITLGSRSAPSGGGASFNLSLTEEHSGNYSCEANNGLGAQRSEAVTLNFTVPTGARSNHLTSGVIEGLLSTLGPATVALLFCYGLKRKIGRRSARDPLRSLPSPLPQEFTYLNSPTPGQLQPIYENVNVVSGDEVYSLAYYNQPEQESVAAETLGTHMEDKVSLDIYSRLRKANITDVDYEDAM

[2] = biological target: T2, FcRL2, overexpressed on 3T3 cells (UniProt Q96LA5 20-508, limits assumed); assay: phage clone on 3T3-FcRL2 cells
T2 construct: whole, on cells
T2 sequence (looked up): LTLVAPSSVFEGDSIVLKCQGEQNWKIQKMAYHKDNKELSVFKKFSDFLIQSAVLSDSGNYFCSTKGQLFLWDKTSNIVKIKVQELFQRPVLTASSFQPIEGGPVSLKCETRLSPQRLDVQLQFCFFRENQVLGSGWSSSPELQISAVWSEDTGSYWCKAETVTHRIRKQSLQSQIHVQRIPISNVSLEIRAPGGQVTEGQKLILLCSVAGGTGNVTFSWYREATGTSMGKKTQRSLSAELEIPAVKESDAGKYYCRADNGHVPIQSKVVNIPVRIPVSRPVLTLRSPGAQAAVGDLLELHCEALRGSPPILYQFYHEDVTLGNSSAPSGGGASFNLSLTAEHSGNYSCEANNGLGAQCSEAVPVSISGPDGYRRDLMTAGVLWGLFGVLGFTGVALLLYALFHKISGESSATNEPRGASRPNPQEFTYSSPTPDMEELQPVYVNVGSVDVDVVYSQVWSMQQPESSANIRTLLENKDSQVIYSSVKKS

[3] = biological target: T3, FcRL3, overexpressed on 3T3 cells (UniProt Q96P31 18-734, limits assumed); assay: phage clone on 3T3-FcRL3 cells
T3 construct: whole, on cells
T3 sequence (looked up): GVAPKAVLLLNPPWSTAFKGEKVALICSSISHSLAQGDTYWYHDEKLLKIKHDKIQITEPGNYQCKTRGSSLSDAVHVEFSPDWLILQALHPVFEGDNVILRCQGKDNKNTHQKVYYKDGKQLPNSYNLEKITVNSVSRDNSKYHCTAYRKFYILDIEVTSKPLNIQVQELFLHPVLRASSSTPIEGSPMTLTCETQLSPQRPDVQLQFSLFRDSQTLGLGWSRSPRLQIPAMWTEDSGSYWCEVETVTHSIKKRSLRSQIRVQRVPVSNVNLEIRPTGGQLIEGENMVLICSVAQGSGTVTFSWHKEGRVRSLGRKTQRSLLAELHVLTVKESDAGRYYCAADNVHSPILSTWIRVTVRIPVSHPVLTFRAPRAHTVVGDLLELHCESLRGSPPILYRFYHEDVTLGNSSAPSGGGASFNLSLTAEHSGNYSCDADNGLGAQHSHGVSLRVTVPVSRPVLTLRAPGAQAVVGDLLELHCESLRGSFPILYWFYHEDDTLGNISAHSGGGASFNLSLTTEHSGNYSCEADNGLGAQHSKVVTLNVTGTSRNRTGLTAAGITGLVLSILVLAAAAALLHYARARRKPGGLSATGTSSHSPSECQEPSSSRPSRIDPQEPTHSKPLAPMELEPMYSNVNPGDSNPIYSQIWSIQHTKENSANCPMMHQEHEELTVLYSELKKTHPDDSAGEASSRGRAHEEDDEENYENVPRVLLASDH

[4] = biological target: T4, Fc Receptor-like 5 (FcRL5), full length, overexpressed on 3T3 or Raji cells (human, UniProt Q96RD9 16-977); assay: phage clone screening on cells
T4 construct: also called 3T3-FcRL5
T4 sequence: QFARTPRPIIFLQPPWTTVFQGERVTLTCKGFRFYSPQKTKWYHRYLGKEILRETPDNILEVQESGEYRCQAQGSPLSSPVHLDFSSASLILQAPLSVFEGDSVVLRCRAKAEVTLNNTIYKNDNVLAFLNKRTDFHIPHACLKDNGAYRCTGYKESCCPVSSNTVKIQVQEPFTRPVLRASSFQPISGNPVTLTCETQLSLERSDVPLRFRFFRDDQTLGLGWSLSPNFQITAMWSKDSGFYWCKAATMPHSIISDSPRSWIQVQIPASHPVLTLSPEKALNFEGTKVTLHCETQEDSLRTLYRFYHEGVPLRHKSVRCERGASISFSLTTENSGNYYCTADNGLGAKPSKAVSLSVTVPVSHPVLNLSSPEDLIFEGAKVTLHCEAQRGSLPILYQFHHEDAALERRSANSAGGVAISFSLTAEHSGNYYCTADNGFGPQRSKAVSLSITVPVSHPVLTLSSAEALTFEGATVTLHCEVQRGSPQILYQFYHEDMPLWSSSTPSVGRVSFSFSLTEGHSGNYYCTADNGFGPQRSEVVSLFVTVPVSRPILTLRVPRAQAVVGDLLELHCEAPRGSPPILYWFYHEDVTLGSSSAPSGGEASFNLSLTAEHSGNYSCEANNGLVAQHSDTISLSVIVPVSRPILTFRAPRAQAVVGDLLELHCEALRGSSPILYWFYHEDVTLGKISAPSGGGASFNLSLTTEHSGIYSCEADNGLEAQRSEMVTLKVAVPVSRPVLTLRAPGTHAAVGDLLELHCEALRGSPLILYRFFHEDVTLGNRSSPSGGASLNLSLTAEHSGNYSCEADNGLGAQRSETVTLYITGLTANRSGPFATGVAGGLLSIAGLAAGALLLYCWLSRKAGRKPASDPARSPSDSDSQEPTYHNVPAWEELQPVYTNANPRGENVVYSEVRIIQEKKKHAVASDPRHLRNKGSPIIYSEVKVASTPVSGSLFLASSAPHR
Method in brief: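 scFv phage clones were incubated with live 3T3 cells overexpressing full-length FcRL5, then detected with mouse anti-M13 mAb and PE-anti-mouse Ig by flow cytometry. 3T3 cells expressing FcRL1, 2, 3, 4 or 6 served as negative-control targets.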

B1: ET200-106 (scFv)
scFv: SYELTQPPAASGTPGQRVTISCSGGVSNIGSGALNWYQQLPGTAPKLLIYSYNQRPSGVSDRFSGSRSATSASLAISGLQSEDEADYYCATWDDSVNGWVFGGGTKLTVLGSRGGGGSGGGGSGGGGSLEMAEVQLVESGAEVKKPGDSVKVSCKPSGYNFLNYGINWVRQAPGQGLEWMGWISTYTGNTNYAQKLQGRVTFTTDTSTSTAYMEMRSLRSDDTAVYYCARQQGGGWYDVWGQGTLVTVSSTSGQAGQHHHHHHGAYPYDVPDYAS
notes: screened as phage clone; entry is VL-linker-VH-His tag-HA tag
Does B1 bind [1]?
Result: no binding

Does B1 bind [2]?
Result: no binding

Does B1 bind [3]?
Result: no binding

Does B1 bind [4]?
Result: binds

B2: ET200-112 (scFv)
scFv: QAVLTQPPSASGTPGQRVTISCSGSSSNIGSNTVNWYQQLPGTAPKLLMYSNDQRPSGVPDRFSGSKSGTSASLAISGLQSEDEADYYCAAWDDSLNGYVFAAGTQLTVLSSRGGGGSGGGGSGGGGSLEMAQVQLQQWGAGLLKPSETLSLTCAVYGGSFSGYYWSWIRQPPGKGLEWIGEINHSGSTNYNPSLKSRVTISVDTSKNQFSLKLSSVTAADTAVYYCAREGLDAFDIWGQGTMVTVSSTSGQAGQHHHHHHGAYPYDVPDYAS
notes: as for B1
Does B2 bind [1]?
Result: no binding

Does B2 bind [2]?
Result: no binding

Does B2 bind [3]?
Result: no binding

Does B2 bind [4]?
Result: binds

B3: ET200-007 (scFv)
scFv: SYVLTQPLSVSVAPGKTARITCGGNNIGSKTVHWYQQKPGQAPVLVIYYDSDRPSGIPERFSGSNSGNTATLTISRVEAGDEADYYCQVWDSSSDHRVFGGGTKLTVLGSRGGGGSGGGGSGGGGSLEMAQVQLQESGPGLVKPSETLSLTCNVSGYSISSGYFWGWIRQPPGKGLEWIGSIYHSRSTYYNPSLKSRVTISVDTSKNQFSLKLNSVTAADTAVYYCARGYGYFDYWGQGTLVTVSSTSGQAGQHHHHHHGAYPYDVPDYAS
notes: as for B1
Does B3 bind [1]?
Result: no binding

Does B3 bind [2]?
Result: no binding

Does B3 bind [3]?
Result: no binding

Does B3 bind [4]?
Result: binds

B4: ET200-108 (scFv)
scFv: QSVLTQPPSVSAPPGQKVTISCSGSSSNIGNNYVSWYQQFPGTAPKLLIYDNNKRPSGISDRFSGSKSGTSATLGIAGLQTGDEADYYCGTWDTSLSGFYVFGSGTKVTVLGSRGGGGSGGGGSGGGGSLEMAEVQLVQSGAEVKKPGASVKVSCKASGYTFTSYTISWVRQAPGQGLEWMGWISTYNGLTNYAQNLQGRVTMTTDTFTTTAYMELRSLRSDDTAVYYCVREGSPDYGDFASFDYWGQGTLVTVSSTSGQAGQHHHHHHGAYPYDVPDYAS
notes: as for B1
Does B4 bind [1]?
Result: no binding

Does B4 bind [2]?
Result: no binding

Does B4 bind [3]?
Result: no binding

Does B4 bind [4]?
Result: binds

B5: ET200-109 (scFv)
scFv: LPVLTQPPSASATPGQRVTISCSGTTSNIGSNTVHWYQQLPGTAPKLLIYNNNQRPSGVPDRFSGSKSGTSASLAISGLRSEDEATYSCATWDDSLSGVVFGGGTKLTVLGSRGGGGSGGGGSGGGGSLEMAEVQLVQSGAEVKKPGSSVKVSCKASGGTFSSYAISWVRQAPGQGLEWMGGIIPIFGTANYAQKFQGRVTITADESTSTAYMELSSLRSEDTAVYYCARDPAYGDYEYDAFDIWGQGTMVTVSSTSGQAGQHHHHHHGAYPYDVPDYAS
notes: as for B1
Does B5 bind [1]?
Result: no binding

Does B5 bind [2]?
Result: no binding

Does B5 bind [3]?
Result: no binding

Does B5 bind [4]?
Result: binds

B6: ET200-103 (scFv)
scFv: QAVLTQPHSVSESPGKTVTISCTRSSGSIASNYVQWYQQRPGSAPTTVIYEDNQRPSGVPDRFSGSIDSSSNSASLTISGLKTEDEADYYCQSYDSTITVFGGGTKLTVLGSRGGGGSGGGGSGGGGSLEMAQVQLVQSGAEVKKPGSSVKVSCKASGGTFSSYAISWVRQAPGQGLEWMGGIIPIFGTANYAQKFQGRVTITADESTSTAYMELSSLRSEDTAVYYCAGEGYYDSSGYSNGDAFDIWGQGTMVTVSSTSGQAGQHHHHHHGAYPYDVPDYAS
notes: as for B1
Which results are given for B6?
binding result [1]: no binding; binding result [2]: no binding; binding result [3]: no binding; binding result [4]: binds

B7: ET200-105 (scFv)
scFv: SYVLTQPPSVSVSPGQTASITCSGDRLTNKYVSWYQQKPGQSPVLVIYEDAKRPSGIPARFSGSNSGNTATLTISGTQAMDESEYYCQAWDSSVVVFGGGTKLTVLGSRGGGGSGGGGSGGGGSLEMAEVQLVESGGGLVQPGRSLRLSCAASGFTFDDYAMHWVRQAPGKGLEWVSGISWNSGSIGYADSVKGRFTISRDNAKNSLYLQMNSLRDEDTALYYCAKDRGGGVIVKDAFDIWGQGTMVTVSSTSGQAGQHHHHHHGAYPYDVPDYAS
notes: as for B1
Does B7 bind [1]?
Result: no binding

Does B7 bind [2]?
Result: no binding

Does B7 bind [3]?
Result: no binding

Does B7 bind [4]?
Result: binds

B8: ET200-107 (scFv)
scFv: QSVVTQPPSVSAAPGEKVTISCSGSNFNVGNNDVSWYQQLPGAAPKLLIYDNNKRPSGIPDRFSGSKSGTSATLDITGLHSDDEADYYCGTWDSSLNTGGVFGTGTKVTVLGSRGGGGSGGGGSGGGGSLEMAEVQLVQSGAEVKKPGASVKVSCKASGYTFTSYTISWVRQAPGQGLEWMGWISTYNGLTNYAQNLQGRVTMTTDTFTTTAYMELRSLRSDDTAVYYCVREGSPDYGDFASFDYWGQGTLVTVSSTSGQAGQHHHHHHGAYPYDVPDYAS
notes: as for B1
What does the source list for B8?
binding result [1]: no binding; binding result [2]: no binding; binding result [3]: no binding; binding result [4]: binds

B9: ET200-110 (scFv)
scFv: QSVLTQPPSASGTPGQRVTISCSGSSSNIGTNGVNWFQQFPGTAPKLLIYTNDQRPSGVPDRFSGSKSGTSASLAISGLQSADEADYYCAVWDHSLNGPVFGGGTKLTVLGSRGGGGSGGGGSGGGGSLEMAQVQLVQSGAEVKKPGSSVKVSCKASGGTFSSYAISWVRQAPGQGLEWMGGIIPIFGTANYAQKFQGRVTITADESTSTAYMELSSLRSEDTAVYYCARGAGFDAFDIWGQGTMVTVSSTSGQAGQHHHHHHGAYPYDVPDYAS
notes: as for B1
Does B9 bind [1]?
Result: no binding

Does B9 bind [2]?
Result: no binding

Does B9 bind [3]?
Result: no binding

Does B9 bind [4]?
Result: binds
